From paper PMC5760735, “Isolation and Characterization of Key Genes that Promote Flavonoid Accumulation in Purple-leaf Tea (Camellia sinensis L.)” (Scientific Reports, 2018)

Legend:
Settings in all cases: 5 mM UDP-glucose, phosphate buffer pH 7.5, 30 °C, 10 min
[1] = substrate: O=c1c(O)c(-c2ccc(O)c(O)c2)oc2cc(O)cc(O)c12; assay: glucosyltransferase assay of recombinant enzyme, HPLC; format: biochemical, Camellia sinensis
[2] = substrate: O=c1c(O)c(-c2ccc(O)cc2)oc2cc(O)cc(O)c12; assay: as above; format: biochemical, Camellia sinensis
purified protein = substrate: O=c1c(O)c(-c2cc(O)c(O)c(O)c2)oc2cc(O)cc(O)c12; assay: purified protein

B1: CsUGT72AM1 (Camellia sinensis) (protein)
chain: MDSSNSKPHVALLSSPGIGHLIPVLELRKRLVANHGFHVTVFSVTTTTAPPPKPKTATTTTTLDLVDIFELHVDISGLVNPNAPFVERVGVTMRESLPILRQAISGMDPRPTTLVVDIFGTDAMKIADEFDMSKYVFITTSAWVFAFCVFVPTLDEEVEGEYVDLQEPVKIPGCNPVRVEDLVDPMLDRRSQQYFEFLRTCKGYLSFDGVLVNTWEDLERPTLKAFRENGLLKQVLKAPIYPIGPLVKRVGSSGSRSELLEWLDLQPCQSVLYVSFGSAGTVSAKQITELAWGLELSQQRFIWVLRPPMEKGGPHDLNDCDDVANYLPDGFLSRTHKLGLVVPTWAPQEEILGHRSVGGFLSHGGWNSSLESILSGVPMIMWPLYAEQKMNAAMVVEELEVGVRVVQLSEVVEREEIAKFVRMVIEGREGKAMRTRVKELQCSGERALIENGSSYESMCELARDFEMKLKY
notes: cDNA in pMAL-c2X (MBP fusion), expressed in E. coli Novablue (DE3), purified
B1 was tested, and the Km [1] was 94.99 µM, the Km [2] was 71.81 µM and the Km (purified protein) was 113.15 µM.
